In patent publication US20020025558A1:

Biological target: human MADr3 (human)
Assay: cell-based or functional assay

TGF-β receptor
signal to noise ratio of 33P phosphorylation at 0.01 units of TGF-β receptor, MADr3 coated at 750 ng/well: 50
signal to noise ratio of 33P phosphorylation on MADr3-coated FlashPlate: > 10
